The results in this text go back to patent US20220348648A1 (Memorial Sloan Kettering, published 2022).

T1: endogenous human DLL3 on NCI-H82 cells (human, UniProt Q9NYJ7 27-618)
T1 construct: whole, on cells; also called endogenous DLL3 on NCI H82 cells
T1 sequence (looked up): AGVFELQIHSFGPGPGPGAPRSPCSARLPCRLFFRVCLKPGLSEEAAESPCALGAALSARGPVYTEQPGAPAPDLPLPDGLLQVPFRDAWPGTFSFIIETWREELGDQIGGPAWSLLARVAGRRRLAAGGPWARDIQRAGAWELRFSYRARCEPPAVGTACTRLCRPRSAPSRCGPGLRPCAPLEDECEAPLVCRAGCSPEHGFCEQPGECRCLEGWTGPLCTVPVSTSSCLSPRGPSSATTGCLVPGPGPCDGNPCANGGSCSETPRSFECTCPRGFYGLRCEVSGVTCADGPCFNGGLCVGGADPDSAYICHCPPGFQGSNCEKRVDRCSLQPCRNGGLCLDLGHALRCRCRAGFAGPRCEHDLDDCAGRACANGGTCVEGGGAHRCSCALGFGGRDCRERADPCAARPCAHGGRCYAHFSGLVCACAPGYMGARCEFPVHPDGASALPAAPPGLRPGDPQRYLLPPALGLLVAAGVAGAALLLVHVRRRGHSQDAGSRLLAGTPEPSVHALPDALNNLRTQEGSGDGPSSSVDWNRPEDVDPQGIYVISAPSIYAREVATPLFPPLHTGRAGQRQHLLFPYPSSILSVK

T2: full-length mouse DLL3 on transfected HEK293 cells (mouse, UniProt O88516 33-584)
T2 construct: also called 293 mDLL3
T2 sequence: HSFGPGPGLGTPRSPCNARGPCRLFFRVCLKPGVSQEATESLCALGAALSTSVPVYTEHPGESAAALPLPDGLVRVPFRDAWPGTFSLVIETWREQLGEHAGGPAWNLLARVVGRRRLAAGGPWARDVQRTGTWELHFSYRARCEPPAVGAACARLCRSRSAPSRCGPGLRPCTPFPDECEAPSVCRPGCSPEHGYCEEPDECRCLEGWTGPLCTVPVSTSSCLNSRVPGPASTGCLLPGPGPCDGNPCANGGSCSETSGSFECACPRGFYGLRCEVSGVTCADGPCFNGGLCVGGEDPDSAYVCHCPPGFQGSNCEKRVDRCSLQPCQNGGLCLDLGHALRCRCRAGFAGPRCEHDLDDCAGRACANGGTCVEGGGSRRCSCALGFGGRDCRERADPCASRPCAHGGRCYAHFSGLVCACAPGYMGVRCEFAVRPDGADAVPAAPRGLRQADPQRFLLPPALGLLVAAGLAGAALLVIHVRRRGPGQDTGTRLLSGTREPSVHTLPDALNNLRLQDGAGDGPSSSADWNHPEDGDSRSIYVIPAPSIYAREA

T3: full-length human DLL3 on transfected HEK293 cells (human, UniProt Q9NYJ7 27-618)
T3 construct: also called 293 hDLL3
T3 sequence: T1 sequence (looked up)

T4: full-length cynomologus DLL3 on transfected HEK293 cells (cynomologus, UniProt A0A2K5WSR1 27-585)
T4 construct: also called 293 cyno DLL3
T4 sequence: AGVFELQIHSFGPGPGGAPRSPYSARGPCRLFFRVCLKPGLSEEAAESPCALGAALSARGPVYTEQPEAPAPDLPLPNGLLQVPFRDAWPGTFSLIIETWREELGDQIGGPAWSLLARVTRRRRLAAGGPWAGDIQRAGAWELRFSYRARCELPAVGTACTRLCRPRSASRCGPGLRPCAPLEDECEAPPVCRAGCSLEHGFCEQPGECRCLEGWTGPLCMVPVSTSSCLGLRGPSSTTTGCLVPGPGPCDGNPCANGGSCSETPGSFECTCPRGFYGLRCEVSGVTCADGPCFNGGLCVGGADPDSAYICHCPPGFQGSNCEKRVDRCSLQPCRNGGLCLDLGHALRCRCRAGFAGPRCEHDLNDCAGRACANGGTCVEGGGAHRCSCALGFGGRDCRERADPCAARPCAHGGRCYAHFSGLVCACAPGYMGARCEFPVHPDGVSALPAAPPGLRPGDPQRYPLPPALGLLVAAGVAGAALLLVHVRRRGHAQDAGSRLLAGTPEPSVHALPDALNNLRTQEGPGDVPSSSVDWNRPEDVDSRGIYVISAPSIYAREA

T5: DLL1 (UniProt O00548 18-545, limits assumed)
T5 sequence (looked up): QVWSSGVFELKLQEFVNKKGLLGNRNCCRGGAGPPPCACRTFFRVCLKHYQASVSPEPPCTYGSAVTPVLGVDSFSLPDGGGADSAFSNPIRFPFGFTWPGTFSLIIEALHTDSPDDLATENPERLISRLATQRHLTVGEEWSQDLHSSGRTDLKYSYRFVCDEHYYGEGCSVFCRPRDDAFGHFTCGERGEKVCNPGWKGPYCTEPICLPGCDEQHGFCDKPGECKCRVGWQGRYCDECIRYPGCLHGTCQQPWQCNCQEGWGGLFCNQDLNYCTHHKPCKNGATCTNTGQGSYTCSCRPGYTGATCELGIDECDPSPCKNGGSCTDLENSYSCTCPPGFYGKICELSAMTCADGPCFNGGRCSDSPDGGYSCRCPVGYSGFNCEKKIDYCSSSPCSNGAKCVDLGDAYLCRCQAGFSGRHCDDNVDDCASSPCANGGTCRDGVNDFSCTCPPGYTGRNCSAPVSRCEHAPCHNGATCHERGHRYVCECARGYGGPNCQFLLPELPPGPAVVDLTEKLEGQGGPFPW

B1: 7-I1-B (antibody, V domains shown)
VH: EVQLVESGGGLVKPGGSLRLSCAASGFTFSNTWMSWVRQAPGKGLEWVGRIKSKSDGGTTDYAAPVKGRFTISRDDSKNTLYLQMNSLKTEDTAVYYCTQYYWNSFDYWGQGTLVTVSS
VL: not shown
notes: Purified hybridoma monoclonal from Ablexis AlivaMAb Kappa mice; the antibody was captured on anti-mouse Fc sensors and detected with anti-mouse IgG / anti-mouse IgG1 reagents; also called 7-I1-B (10 µg/ml)
B2: 6-G23-F (antibody, V domains shown)
VH: QVQLVQSGAEVKKPGASVKVSCKASGYTFTSYYIHWVRQAPGQGLEWMGIIDPSDGSTNYAQKFQGRVTMTRDTSTSTVYMELSSLRSEDTAVYYCARDREYNYYGLDVWGQGTTVTVSS
VL: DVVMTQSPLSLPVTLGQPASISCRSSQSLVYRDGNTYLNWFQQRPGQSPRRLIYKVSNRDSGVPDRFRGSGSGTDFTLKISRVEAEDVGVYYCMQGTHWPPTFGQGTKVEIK
notes: Purified hybridoma monoclonal from Ablexis AlivaMAb Kappa mice (human immunoglobulin repertoire); the antibody was captured on anti-mouse Fc sensors and detected with anti-mouse IgG / anti-mouse IgG1 reagents; also called 6-G23-F (10 µg/ml)
B3: 2-C8-A (antibody, V domains shown)
VH: EVQLVESGGGLVQPGGSQRLSCAASGFTFSSYWMNWVRQAPGKGLEWVANIKEDGSEKYYVDSVKGRFTISRDNAKNSLYLQMNSLRAEDTAVYYCARDPGWAPFDYWGQGTLVTVSS
VL: DIQMSQSPSSLSASVGDRVTITCRASQGISNYLAWFQQKPGKAPKSLIYAASSLQSGVPSKFSGSGSGTDFTLAISSLQPEDFATYYCQQYNSFPYTFGQGTTLEIK
notes: Purified hybridoma monoclonal from Ablexis AlivaMAb Kappa mice; the antibody was captured on anti-mouse Fc sensors and detected with anti-mouse IgG / anti-mouse IgG1 reagents; also called 2-C8-A (10 µg/ml)
B4: 10-O18-A (antibody, V domains shown)
VH: QVQLQESGPGLVKPSETLSLTCTVSGGSINSYYWSWIRQPPGKGLEWIGYIFYSGITNYNPSLKSRVTISLDTSKNQFSLKLSSVTAADTAVYYCARIGVAGFYFDYWGQGTLVTVSS
VL: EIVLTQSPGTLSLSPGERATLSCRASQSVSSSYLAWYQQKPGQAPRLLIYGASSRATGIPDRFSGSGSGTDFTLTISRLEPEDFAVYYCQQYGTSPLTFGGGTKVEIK
notes: Purified hybridoma monoclonal from Ablexis AlivaMAb Kappa mice; the antibody was captured on anti-mouse Fc sensors and detected with anti-mouse IgG / anti-mouse IgG1 reagents; also called 10-018-A; 10-O18-A (10 µg/ml)

In one experiment the target is T1, endogenous human DLL3 on NCI-H82 cells. The experiment in a line: flow cytometry, 10 µg/ml antibody on NCI-H82 cells (endogenous DLL3). The method, then: (§1) The four monoclonal antibodies (6-G23-F, 2-C8-A, 7-I1-B and 10-O18-A) were tested for their ability to bind to mouse and cynomologus DLL3 as well as endogenous human DLL3 by flow cytometry. For this purpose, HEK293 cells were transfected with plasmid DNA encoding full-length human, mouse or cynomologus DLL3 and used in the experiment. Briefly 10⁶ transfected HEK293 cells or NCI-H82 primary cells were added in FACS buffer PBS 0.5% BSA to the wells of a 96 well U bottom plate and purified monoclonal added to 10 μg/ml. After 30 minutes incubation at 4° C. the cells were washed 3 times in FACS buffer and incubated with a PE labelled F(ab)2 anti-mouse IgG H and L 2nd stage. After another 30 minutes incubation at 4° C. the cells were washed three times in FACS buffer and analyzed on the flow cytometer. Data are presented at the ratio of the Mean Fluorescent Intensity for the monoclonal divided by the background staining with the 2nd stage. As shown in the Table below, all of the monoclonal antibodies cross reacted with cynomologus DLL3 and detected endogenous DLL3 on NCI H82 cells but only 6-G23-F and 7-I1-B bound to mouse DLL3.
Take B1: the “ratio of the Mean Fluorescent Intensity for the monoclonal divided by the background staining with the 2nd stage” value was 19.2 ratio.

Take B2: the “ratio of the Mean Fluorescent Intensity for the monoclonal divided by the background staining with the 2nd stage” value came out at 11.1 ratio.

For the molecule B3, the “ratio of the Mean Fluorescent Intensity for the monoclonal divided by the background staining with the 2nd stage” value came out at 11.9 ratio.

For the molecule B4, the “ratio of the Mean Fluorescent Intensity for the monoclonal divided by the background staining with the 2nd stage” value came out at 9.4 ratio.

The target is the same in a further experiment. Description: cell-based or functional assay.
As to B1, the “Dy light Dy658 Fluorescence (% of the Control Reference Monoclonal Antibody), quenching internalization assay on NCI-H82 cells” value is 70.1 % of the Control Reference Monoclonal Antibody.

Consider B2, for which the “Dy light Dy658 Fluorescence (% of the Control Reference Monoclonal Antibody), quenching internalization assay on NCI-H82 cells” value was 76.5 % of the Control Reference Monoclonal Antibody.

In the case of B3, the “Dy light Dy658 Fluorescence (% of the Control Reference Monoclonal Antibody), quenching internalization assay on NCI-H82 cells” value was 62.9 % of the Control Reference Monoclonal Antibody.

A further experiment has the same target. Description: cell-based or functional assay. This is another data set of the same source.
As to B1, the “MFI Ratio (4° C. / 37° C. staining, 4/37 internalization assay on NCI-H82 cells)” value stood at 1.68 ratio.

Take B2: the “MFI Ratio (4° C. / 37° C. staining, 4/37 internalization assay on NCI-H82 cells)” value came to 1.67 ratio.

For B3, the “MFI Ratio (4° C. / 37° C. staining, 4/37 internalization assay on NCI-H82 cells)” value stood at 1.76 ratio.

For the molecule B4, the “MFI Ratio (4° C. / 37° C. staining, 4/37 internalization assay on NCI-H82 cells)” value amounted to 1.56 ratio.

Another experiment concerns the target T2, full-length mouse DLL3 on transfected …. The experiment in a line: flow cytometry, 10 µg/ml antibody on HEK293 cells transfected with full-length mouse DLL3. The method, then: as §1
In general terms: Flow cytometry measures light scatter and fluorescence of single cells or particles in a stream.
On to B1, for which the “ratio of the Mean Fluorescent Intensity for the monoclonal divided by the background staining with the 2nd stage” value was determined as 4.7 ratio.

Take B2: the “ratio of the Mean Fluorescent Intensity for the monoclonal divided by the background staining with the 2nd stage” value is 3.97 ratio.

B3: the “ratio of the Mean Fluorescent Intensity for the monoclonal divided by the background staining with the 2nd stage” value came to 1.5 ratio.

Regarding B4, the “ratio of the Mean Fluorescent Intensity for the monoclonal divided by the background staining with the 2nd stage” value came to 0.99 ratio.

A further experiment deals with T1, endogenous human DLL3 on NCI-H82 cells. The experiment in a line: cell-based or functional assay. The source holds these as a separate data set.
For the molecule B1, the “FAB ZAP % SC16 Max Killing (saporin Fab ZAP cytotoxicity on NCI-H82 cells)” value (from here on “FAB ZAP % SC16 Max Killing”) amounted to 97 % SC16 Max Killing.

For the molecule B2, the “FAB ZAP % SC16 Max Killing” value was determined as 94 % SC16 Max Killing.

For B3, the “FAB ZAP % SC16 Max Killing” value was found to be 89 % SC16 Max Killing.

The next experiment has as its target T3, full-length human DLL3 on transfected …. Description: flow cytometry, 10 µg/ml antibody on HEK293 cells transfected with full-length human DLL3. The method, then:
as §1
As for B1, the “ratio of the Mean Fluorescent Intensity for the monoclonal divided by the background staining with the 2nd stage” value amounted to 9.74 ratio.

Consider B2, for which the “ratio of the Mean Fluorescent Intensity for the monoclonal divided by the background staining with the 2nd stage” value was 6.33 ratio.

Take B3: the “ratio of the Mean Fluorescent Intensity for the monoclonal divided by the background staining with the 2nd stage” value was determined as 7.71 ratio.

In the case of B4, the “ratio of the Mean Fluorescent Intensity for the monoclonal divided by the background staining with the 2nd stage” value is 4.74 ratio.

For another experiment, the target named is T4, full-length cynomologus DLL3 on …. The experiment in a line: flow cytometry, 10 µg/ml antibody on HEK293 cells transfected with full-length cynomologus DLL3. The method, then: as §1
Consider B1, for which the “ratio of the Mean Fluorescent Intensity for the monoclonal divided by the background staining with the 2nd stage” value came to 18.7 ratio.

In the case of B2, the “ratio of the Mean Fluorescent Intensity for the monoclonal divided by the background staining with the 2nd stage” value was determined as 13.1 ratio.

As to B3, the “ratio of the Mean Fluorescent Intensity for the monoclonal divided by the background staining with the 2nd stage” value came out at 15 ratio.

Consider B4, for which the “ratio of the Mean Fluorescent Intensity for the monoclonal divided by the background staining with the 2nd stage” value turned out to be 9.85 ratio.

The target in the next experiment is DLL4 (UniProt Q9NR61 27-524, limits assumed). Description: FIG. 7; assay not described.
Sequence of DLL4 (Q9NR61 27-524 limits assumed): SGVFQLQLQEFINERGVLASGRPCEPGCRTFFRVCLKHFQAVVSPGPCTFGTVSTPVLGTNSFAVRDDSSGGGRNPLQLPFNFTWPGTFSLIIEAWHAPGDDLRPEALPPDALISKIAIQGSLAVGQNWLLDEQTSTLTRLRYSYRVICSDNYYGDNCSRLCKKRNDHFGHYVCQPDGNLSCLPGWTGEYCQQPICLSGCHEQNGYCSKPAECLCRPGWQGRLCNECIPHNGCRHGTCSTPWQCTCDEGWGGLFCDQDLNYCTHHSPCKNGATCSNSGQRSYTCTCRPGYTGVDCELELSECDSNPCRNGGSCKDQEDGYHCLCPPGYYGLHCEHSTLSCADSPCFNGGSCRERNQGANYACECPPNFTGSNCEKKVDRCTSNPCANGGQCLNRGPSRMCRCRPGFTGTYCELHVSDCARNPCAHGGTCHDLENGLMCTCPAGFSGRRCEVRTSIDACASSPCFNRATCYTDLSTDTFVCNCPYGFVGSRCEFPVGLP
B2: the binding result is “no binding”.

With B3, the binding result is on record as “no binding”.

With B4, the binding result is listed as “no binding”.

The target in another experiment is T5, DLL1. The experiment in a line: FIG. 7; assay not described.
As for B1, the binding result is “no binding”.

Consider B2, for which the binding result is “no binding”.

Turning to B3, the binding result is listed as “no binding”.

Consider B4, for which the binding result is on record as “no binding”.
